The text below walks through data of patent US20220332804A1 (CSL INNOVATION, published 2022).

Common to all, as to assay: SPR, mAb captured, C2 mutant analyte;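 also: Anti-C2 mAbs captured on goat anti-human IgG Biacore CM5 chips, alanine or serine C2 surface mutants flowed over at 37 °C, double-referenced sensorgrams fitted to a 1:1 binding model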
(In general: In SPR one partner is held on a chip, and binding of the other changes the refractive index at the surface.)

Assay [1] addresses T1, human C2 L439A (human, UniProt P06681 21-752).
T1 sequence: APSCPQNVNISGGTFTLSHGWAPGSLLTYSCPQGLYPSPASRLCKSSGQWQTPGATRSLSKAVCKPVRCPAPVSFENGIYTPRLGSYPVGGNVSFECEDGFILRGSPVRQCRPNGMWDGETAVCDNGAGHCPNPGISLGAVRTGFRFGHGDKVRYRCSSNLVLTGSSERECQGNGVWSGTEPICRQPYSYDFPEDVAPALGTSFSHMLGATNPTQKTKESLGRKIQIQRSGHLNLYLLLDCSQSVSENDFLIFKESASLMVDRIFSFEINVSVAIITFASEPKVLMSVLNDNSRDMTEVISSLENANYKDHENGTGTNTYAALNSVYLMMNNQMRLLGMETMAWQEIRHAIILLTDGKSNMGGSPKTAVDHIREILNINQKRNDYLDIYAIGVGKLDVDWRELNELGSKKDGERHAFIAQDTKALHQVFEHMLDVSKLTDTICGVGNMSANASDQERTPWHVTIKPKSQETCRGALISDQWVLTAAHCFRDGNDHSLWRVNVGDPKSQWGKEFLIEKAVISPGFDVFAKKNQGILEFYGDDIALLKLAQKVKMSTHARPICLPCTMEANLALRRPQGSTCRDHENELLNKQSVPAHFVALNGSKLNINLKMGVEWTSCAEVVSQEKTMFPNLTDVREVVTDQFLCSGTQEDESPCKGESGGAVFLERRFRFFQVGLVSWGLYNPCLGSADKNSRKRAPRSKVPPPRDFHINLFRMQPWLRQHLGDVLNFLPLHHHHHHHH

Assay [2] concerns the target T2, human C2 R688A (human, UniProt P06681 21-752).
T2 sequence: T1 sequence with A419L, R668A

Assay [3] addresses T3, human C2 E476A (human, UniProt P06681 21-752).
T3 sequence: T1 sequence with A419L, E456A

Assay [4] deals with T4, human C2 N471A (human, UniProt P06681 21-752).
T4 sequence: T1 sequence with A419L, N451A

Positions count from the first letter of the chain named.

B1: RF16-214 (antibody, V domains shown)
VH: EVQLLESGGGLVQPGGSLRLSCAASGFTFSWYQMMWVRQAPGKGLEWVSRIYPSGGGTAYADSVKGRFTISRDNSKNTLYLQMNSLRAEDTAVYYCARDAGYGDNWGQGTLVTVSS
VL: QSALTQPPSVSVSPGQTASITCSGDKLGEKYASWYQQKAGQSPVMVIYQDRKRPSGIPERFSGSNSGNTATLTISGTQAMDEADYYCQAWDTRAVVFGGGTKLTVLG
For orientation: Kd means the free concentration of one partner at which half of the binding sites on the other are occupied at equilibrium, for simple one-to-one binding. Read a high Kd as weaker binding. For the molecule B1, the Kd was 1320 nM in assay [1], 96.2 nM in assay [2], 58.6 nM in assay [3] and 32.8 nM in assay [4].
